Test results published in paper PMC5882710, “Amphotericin B-conjugated polypeptide hydrogels as a novel innovative strategy for fungal infections” (Royal Society Open Science, 2018).
Values after ≈ are worked out from the molar mass of the structure shown.

How the values were obtained:
Candida albicans [1] = assay: microbe, parasite or virus in culture; format: cell-based; details: for MBC: 48 h
Procedure: (§1) The minimum inhibitory concentration (MIC) of the Dex, AmB, Nap-FFDKY, Npx-FFDKY, Fmoc-FFDKY, Nap-AmB, Npx-AmB and Dex-AmB hydrogels was determined by a serial 2-fold dilution of test samples. Fourteen different concentrations of drugs and hydrogels were prepared in DMF solution. One millilitre of the fungal strain […] colony-forming unit (CFU)/tube was inoculated into each tube containing different concentrations (1 ml) of test samples and incubated at 28°C (200 rpm) for 24 h. The MIC was defined as the minimum concentration of the sample inhibiting the visible growth of the microorganism. The experiment was repeated at least three times. Based on the values of MIC, 0.1 ml of the fungal strain containing different concentrations of test samples which inhibited the visible growth of the microorganism was subcultivated on the Sabouraud's dextrose agar plates, and incubated at 28°C for 48 h. The minimum bactericidal concentration (MBC) determination was defined as the minimum concentration of the sample sterilizing the visible growth of the microorganism (lower than 5 CFU/plate). The experiment was repeated at least three times. Based on the values of MIC, the fungal strain containing 1 × MIC and 2 × MIC concentrations of test samples was incubated at 28°C. A test suspension containing 0.1 ml was taken out and used to evaluate fungus colonies at 0, 1, 2, 4, 6, 8, 12 and 24 h.

[2] = Hydrogel formation (gelation time, minimum gel concentration); format: physicochemical; details: for minimum gel concentration needed for gelation: PBS solutions at 37°C; for gelation time: room temperature, PBS pH 7.4, 2 equiv. Na2CO3
Procedure: General procedure for the formation of hydrogels: all the compounds dissolved in phosphate-buffered saline (PBS, pH 7.4). 2 equiv. of Na2CO3 (0.1 mol l^−1) were used to neutralize the carboxyl groups (─COOH) of compounds and adjust the pH to neutral. Then the hydrogels were formed at room temperature (22–25°C) or 37°C within 30 min.

Candida albicans [3] = assay: Time-kill curves at 1 x MIC and 2 x MIC; format: cell-based; details: C. albicans, 28°C, n = 3; for time for which antifungal activity is exhibited in time-kill curves: sampled 0, 1, 2, 4, 6, 8, 12 and 24 h
Procedure: as §1

[4] = In vitro drug release of AmB or Dex from hydrogels; format: physicochemical; details: for final drug release percentage of AmB after 12 h: 0.3 ml PBS pH 7.4 containing trypsin 1 µg ml^−1, 37°C, HPLC-UV 383 nm; for final drug release percentage of AmB after 12 h / final drug release percentage of Dex after 12 h: n = 3; for final drug release percentage of Dex after 12 h / constant release rate of AmB / constant release rate of Dex: PBS pH 7.4 with trypsin 1 µg ml^−1, 37°C; for final drug release percentage of Dex after 12 h: HPLC-UV 240 nm; for constant release rate of AmB / constant release rate of Dex: entire measurement period (12 h); for diffusion exponent n of AmB release (Mt/M∞ = k·t^n) / diffusion exponent n of Dex release (Mt/M∞ = k·t^n) / rate constant k of AmB release (Mt/M∞ = k·t^n) / rate constant k of Dex release (Mt/M∞ = k·t^n): fit of release data, PBS pH 7.4, 37°C
Procedure: The 2.0 wt%, 3.0 wt% and 4.0 wt% of Nap-AmB, Npx-AmB and Dex-AmB hydrogels within the 0.3 ml PBS solution containing trypsin (1 µg ml^−1) were prepared for drug release study. A quantity of 0.2 ml of the upper buffer solution was taken out and used to run HPLC at every 30 min and 0.2 ml of fresh PBS buffer solution containing trypsin (1 µg ml^−1) was added back each time. The experiments were conducted at 37°C. The areas of peaks in HPLC spectra were used to determine the percentage of AmB or Dex released from their corresponding hydrogels. The liquid chromatography system (Agilent 1200 series, America) comprised Degasser G1322A, Quaternary pump G1312B, Thermostated auto sampler HiP-ALS G1367C, column oven G1316A and ultraviolet detector G1314A. Separation was achieved using a SepaxGP-C18 reversed-phase column (250 mm × 4.6 mm internal diameter, 5 µm particle size) (America). The mobile phase of AmB analysis was acetonitrile-water (43 : 57, containing 0.05% TFA) at a flow-rate of 1 ml min^−1. Chromatography was carried out at 30°C and the detector wavelengths were set at 383 nm. The mobile phase of Dex analysis was acetonitrile-water (45 : 55, containing 0.05% TFA) at a flow rate of 1 ml min^−1. Chromatography was carried out at 30°C and the detector wavelengths were set at 240 nm. The experiment was conducted in three parallel experiments. […] Mt/M∞ is the fractional drug release, Mt is the amount of drug released at time t, M∞ is the maximum amount of drug released at time ∞, t is the release time, k is a rate constant of kinetic release and n is the diffusion exponent, characteristic of the drug release mechanism.

[5] = Solubility of hydrogelators in aqueous solutions; details: water, PBS solutions (pH = 7.4) and culture solutions

Compound | MIC (Candida albicans [1]; 24 h) [µg/mL] | MBC (Candida albicans [1]) [µg/mL] | minimum gel concentration needed for gelation [2] | gelation time [2] | speed of fungistatic effect in time-kill curves (in words) (Candida albicans [3]) | time for which antifungal activity is exhibited in time-kill curves (Candida albicans [3]) [h] | final drug release percentage of AmB after 12 h ([4]; 2.0 wt% hydrogel) [%] | constant release rate of AmB ([4]; 2.0 wt% hydrogel) | diffusion exponent n of AmB release (Mt/M∞ = k·t^n) ([4]; 2.0 wt% hydrogel) | rate constant k of AmB release (Mt/M∞ = k·t^n) ([4]; 2.0 wt% hydrogel) | final drug release percentage of AmB after 12 h ([4]; 3.0 wt% hydrogel) [%] | constant release rate of AmB ([4]; 3.0 wt% hydrogel) [mg ml^−1 per hour] | diffusion exponent n of AmB release (Mt/M∞ = k·t^n) ([4]; 3.0 wt% hydrogel) | rate constant k of AmB release (Mt/M∞ = k·t^n) ([4]; 3.0 wt% hydrogel) | final drug release percentage of AmB after 12 h ([4]; 4.0 wt% hydrogel) [%] | constant release rate of AmB ([4]; 4.0 wt% hydrogel) [mg ml^−1 per hour] | diffusion exponent n of AmB release (Mt/M∞ = k·t^n) ([4]; 4.0 wt% hydrogel) | rate constant k of AmB release (Mt/M∞ = k·t^n) ([4]; 4.0 wt% hydrogel) | solubility in aqueous solutions (in words) [5] | also measured
C[C@@H]1C[C@H]2[C@@H]3CCC4=CC(=O)C=C[C@]4(C)[C@@]3(F)[C@@H](O)C[C@]2(C)[C@@]1(O)C(=O)CO [Dex, dexamethasone] |  |  |  |  |  |  |  |  |  |  |  |  |  |  |  |  |  |  |  | antifungal effect against C. albicans (in words) (Candida albicans [1]; MIC/MBC test, serial 2-fold dilution, 28°C, 24 h): less antifungal effective
C[C@@H]1[C@H](O)[C@@H](C)/C=C/C=C/C=C/C=C/C=C/C=C/C=C/[C@H](O[C@@H]2O[C@H](C)[C@@H](O)[C@H](N)[C@@H]2O)C[C@@H]2O[C@](O)(C[C@@H](O)C[C@@H](O)[C@H](O)CC[C@@H](O)C[C@@H](O)CC(=O)O[C@H]1C)C[C@H](O)[C@H]2C(=O)NCCCC[C@H](NC(=O)[C@H](CC(=O)O)NC(=O)[C@H](Cc1ccccc1)NC(=O)[C@H](Cc1ccccc1)NC(=O)CCC(=O)OCC(=O)[C@@]1(O)[C@H](C)C[C@H]2[C@@H]3CCC4=CC(=O)C=C[C@]4(C)[C@@]3(F)[C@@H](O)C[C@@]21C)C(=O)N[C@@H](Cc1ccc(O)cc1)C(=O)O [Dex-AmB] | 40.1 (≈ 19.1 µM) | 643 (≈ 306 µM) | ~2.0 wt% | approximately 30 min | exert fungistatic effect more quickly than AmB and Nap-AmB hydrogels | 2 | 16.3 | about 0.1123 mg ml^−1 per hour | 0.8265 | about 0.2283 | 19.2 | ~0.1994 | 0.6474 | ~0.3669 | 24.4 | ~0.3517 | 0.7971 | ~0.6436 | highly soluble | final drug release percentage of Dex after 12 h ([4]; 2.0 wt% hydrogel): 28.5%; constant release rate of Dex ([4]; 2.0 wt% hydrogel): about 0.08359 mg ml^−1 per hour; diffusion exponent n of Dex release (Mt/M∞ = k·t^n) ([4]; 2.0 wt% hydrogel): 0.4404; rate constant k of Dex release (Mt/M∞ = k·t^n) ([4]; 2.0 wt% hydrogel): approximately 0.1211; final drug release percentage of Dex after 12 h ([4]; 3.0 wt% hydrogel): 39.6%; constant release rate of Dex ([4]; 3.0 wt% hydrogel): ~0.1743 mg ml^−1 per hour; diffusion exponent n of Dex release (Mt/M∞ = k·t^n) ([4]; 3.0 wt% hydrogel): 0.3576; rate constant k of Dex release (Mt/M∞ = k·t^n) ([4]; 3.0 wt% hydrogel): ~0.3039; final drug release percentage of Dex after 12 h ([4]; 4.0 wt% hydrogel): 46.8%; constant release rate of Dex ([4]; 4.0 wt% hydrogel): ~0.2867 mg ml^−1 per hour; diffusion exponent n of Dex release (Mt/M∞ = k·t^n) ([4]; 4.0 wt% hydrogel): 0.2587; rate constant k of Dex release (Mt/M∞ = k·t^n) ([4]; 4.0 wt% hydrogel): ~0.6024
C[C@@H]1[C@H](O)[C@@H](C)/C=C/C=C/C=C/C=C/C=C/C=C/C=C/[C@H](O[C@@H]2O[C@H](C)[C@@H](O)[C@H](N)[C@@H]2O)C[C@@H]2O[C@](O)(C[C@@H](O)C[C@@H](O)[C@H](O)CC[C@@H](O)C[C@@H](O)CC(=O)O[C@H]1C)C[C@H](O)[C@H]2C(=O)NCCCC[C@H](NC(=O)[C@H](CC(=O)O)NC(=O)[C@H](Cc1ccccc1)NC(=O)[C@H](Cc1ccccc1)NC(=O)Cc1ccc2ccccc2c1)C(=O)N[C@@H](Cc1ccc(O)cc1)C(=O)O [Nap-AmB] |  |  | about 0.5 wt% | 3 min |  | 2 | 36.3 | about 0.3188 mg ml^−1 per hour | 0.6874 | approximately 0.2503 | 47.3 | ~0.6114 | 0.5722 | ~0.4662 | 62.1 | ~1.015 | 0.5481 | ~0.6379 | highly soluble | 
COc1ccc2cc([C@H](C)C(=O)N[C@@H](Cc3ccccc3)C(=O)N[C@@H](Cc3ccccc3)C(=O)N[C@@H](CC(=O)O)C(=O)N[C@@H](CCCCNC(=O)[C@H]3[C@@H]4C[C@@H](O[C@@H]5O[C@H](C)[C@@H](O)[C@H](N)[C@@H]5O)/C=C/C=C/C=C/C=C/C=C/C=C/C=C/[C@H](C)[C@@H](O)[C@@H](C)[C@H](C)OC(=O)C[C@H](O)C[C@H](O)CC[C@@H](O)[C@H](O)C[C@H](O)C[C@](O)(C[C@@H]3O)O4)C(=O)N[C@@H](Cc3ccc(O)cc3)C(=O)O)ccc2c1 [Npx-AmB] | 43.7 (≈ 23.8 µM) | 349 (≈ 190 µM) | ~1.0 wt% | 10 min | exert fungistatic effect more quickly than AmB and Nap-AmB hydrogels | 2 | 30.0 | about 0.2406 mg ml^−1 per hour | 0.7428 | approximately 0.2846 | 38.9 | ~0.4837 | 0.7784 | ~0.3358 | 51.3 | ~0.8332 | 0.7771 | ~0.4387 |  | 
